{
  "source": "paper PMC4674680",
  "about": "“An in cellulo-derived structure of PAK4 in complex with its inhibitor Inka1” (Nature Communications, 2015)",
  "key": {"PAK4cat": {"molecular_target": "T1, PAK4cat (Homo sapiens, UniProt O96013)", "T1 construct": "PAK1 (1–545) and PAK4 (286–591), respectively; 6His (N); made in house; host or cells: Escherichia coli BL21-CodonPlus(DE3)", "T1 sequence (O96013 286-591)": "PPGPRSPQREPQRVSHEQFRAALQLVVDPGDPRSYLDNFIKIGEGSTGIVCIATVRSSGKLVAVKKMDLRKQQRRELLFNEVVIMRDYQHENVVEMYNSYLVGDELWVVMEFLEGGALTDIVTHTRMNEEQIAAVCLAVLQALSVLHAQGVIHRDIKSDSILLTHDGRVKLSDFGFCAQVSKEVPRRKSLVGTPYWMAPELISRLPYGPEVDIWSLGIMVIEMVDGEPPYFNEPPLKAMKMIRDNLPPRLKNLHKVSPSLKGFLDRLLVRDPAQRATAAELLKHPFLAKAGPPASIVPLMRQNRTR", "assay": "In-vitro kinase assay, PAK4cat (phosphorylation of GST-Raf13)", "type": "biochemical", "settings": "in vitro", "procedure": "Purified PAK1 or PAK4 (50 nM in 25–50 μl) were incubated with 10 μM GST-Raf1S338 peptide in 10 μM ATP (2 μCi of γ32P ATP) of kinase buffer (25 mM HEPES, pH 7.3, 0.1% Triton X-100, 50 mM KCl, 10 mM MgCl2, 1 mM dithiothreitol) at 30 °C for 20 min. Samples were analysed by SDS–PAGE or adsorption of the GST substrate mix onto polyvinylidene difluoride membranes, followed by extensive washing to remove free γ32P-ATP. The synthetic peptides of 95% purity, as determined by HPLC and mass spectrometric analyses (GenScript), were soluble in aqueous PBS. Stock solutions (10 mM) were quantified via calculated extinction coefficients and absorbance measurements at 280 nm and stored at −80 °C. The diluted peptides were incubated at the indicated concentrations with the kinase on ice (10 min) before addition of γ32P ATP and subsequent incubation at 30 °C. The synthetic peptide array (Jerini Biotools) was phosphorylated in situ as described previously."}, "PAK4": {"tested_on": "PAK4", "assay": "Co-immunoprecipitation of HA-Inka1 by FLAG-tagged PAK4 constructs", "type": "binding, human", "settings": "Fig. 1b; mammalian cells; PAK4* = RR48/49AE", "procedure": "Transfection of cell culture and immunoprecipitation\nMonkey COS-7 cells, human HEK293 and U2OS were grown in DMEM medium with 4,500 mg l^−1 glucose supplemented with 10% bovine calf serum (Hyclone). HeLa cells were grown in Eagle's MEM medium supplemented with L-glutamine, sodium bicarbonate, sodium pyruvate and 10% bovine calf serum. Transient transfections were performed with Lipofectamine 2000 according to recommended protocols. Typically, a total of 5 μg plasmid DNA was used per 60-mm dish; lysates were harvested 18 h later in ice-cold lysis buffer (0.5 ml; 25 mM HEPES, pH 7.3, 100 mM KCl, 5 mM MgCl2, 20 mM β-glycerophosphate, 5% glycerol, 0.5% Triton X-100, 5 mM dithiothreitol, 0.5 mM phenylmethyl sulfonyl fluoride, 1 mM Na3VO4 and 1 × protease inhibitor cocktail (Roche)). To test co-immunoprecipitation of proteins, the lysates were clarified by centrifugation (14,000g) and the clarified lysates were incubated while rolling (2 h) with 20 μl M2 anti-Flag Sepharose (Sigma-Aldrich, A2220). Rabbit anti-Flag (Sigma-Aldrich, F7425) or horseradish peroxidase-coupled anti-HA (Santa Cruz Biotechnology, sc-7392 HRP, 1 μg ml^−1) were used for western blot analysis."}},
  "data": [
    {"molecule": "Inka1: endogenous PAK4 inhibitor, 30-kDa neural crest enriched protein (protein, UniProt Q96EL1 1-287, looked up) PAK4-inhibitor INKA1: MDMHSARLDSFLSQLRWELLCGRDTGSPSMPGPLQPTSQTGPDVQPSHQLRASGALEEDSVCCVEEEEEEEEEAVVTEDRDAALGGPREHALDWDSGFSEVSGSTWREEELPVSQRPAPSAQPLRRQCLSVSGLPMPSRAPVASVPPVHHPRPKSTPDACLEHWQGLEAEDWTAALLNRGRSRQPLVLGDNCFADLVHNWMELPETGSEGGDGGGHRARARPPQFLLGLSEQLRRRLARARRTAMAGKRLSCPPRPEPELPADVSRFAALMSCRSRQPIICNDVSYL", "values": [
      {"measurement": "Affinity relative to AID or iBox-C, in words", "setting": "PAK4cat", "value": "much higher affinity than the corresponding AID"},
      {"measurement": "Binding to activated PAK4* (mutated AID) versus wild-type PAK4, in words", "setting": "PAK4", "value": "significantly better than wild-type PAK4"}
    ]}
  ]
}
